Laboratory results: PMC10995199, “Architecture and regulation of filamentous human cystathionine beta-synthase” (Nature Communications, 2024)

Molecular target: human cystathionine beta-synthase regulatory domain alone with the loop deletion (CBS^RDΔ516–525) (human) (UniProt P35520)
Test: SEC + native gel or EMSA; control constructs in analytical Superose 6 gel filtration and clear-native and blue-native PAGE (Supplementary Fig. 2); self-association

Work on “human cystathionine beta-synthase regulatory domain alone with the loop deletion (CBS^RDΔ516–525) (from UniProt P35520 406-515) (domain or fragment)” yielded a stoichiometry N of 2.
